{
  "source": "patent US9951111B2",
  "about": "“Type I interferon mimetics as therapeutics for cancer, viral infections, and multiple sclerosis” (priority 2011, dated 2018)",
  "key": {"[1]": {"test_system": "vesicular stomatitis virus (VSV)", "format": "cell-based"}, "vaccinia virus [2]": {"test_system": "vaccinia virus", "format": "in vivo, mice (C57BL/6)", "details": "i.n. infection; peptides 200 μg or murine IFNα1 2,000 U i.p. for six consecutive days; FIG. 12"}, "[3]": {"experiment": "Body weight of mice under IFNα1 or lipo-peptide (FIG. 13)", "details": "5×10^3 U/mouse i.p. on alternate days (peptide 100 μg), day 11 difference p<0.05"}, "EMC virus": {"test_system": "EMC virus", "format": "cell-based, encephalomyocarditis (EMC) virus"}, "[4]": {"test_system": "experimental allergic encephalomyelitis (EAE) in SJL/J mice", "experiment": "Relapsing/remitting EAE in SJL/J mice immunized with MBP", "format": "in vivo", "details": "15 μg/mouse i.p. every other day from day 12 post-immunization with MBP; FIG. 6C"}, "[5]": {"experiment": "IFN toxicity in vivo: body weight (FIG. 7)", "details": "2,000 U per mouse of IFN mimetic I.P. on alternate days"}, "lymphocytes": {"test_system": "lymphocytes", "experiment": "IFN toxicity in vivo: lymphocyte count on blood smears (Table 4)", "details": "day 11, i.p. alternate days for ten days, IFN mimetics 2 × 10^3 U in 200 μg per mouse, IFNβ 10^3 U/mouse; for % Reduction (lymphocytes): versus PBS"}, "vaccinia virus [6]": {"test_system": "vaccinia virus", "format": "cell-based"}},
  "note": "Ends that are not written are not given here.",
  "data": [
    {"molecule": "lipo-IFNβ(150-187) (ILHYLKAKEYSHCAWTIVRVEILRNFYFINRLTGYLRN; also: lipidated; UniProt P01574 150-187, looked up, fragment)", "values": [
      {"measurement": "antiviral activity against vesicular stomatitis virus (VSV)", "setting": "[1]", "result": "showed antiviral activity"}
    ]},
    {"molecule": "lipo-IFNα1(152-189) (LYLTEKKYSPCAWEVVRAEIMRSLSLSTNLQERLRRKE; also: lipid attached; listed as Homo sapiens)", "values": [
      {"measurement": "antiviral activity against vesicular stomatitis virus (VSV)", "setting": "[1]", "result": "showed antiviral activity"},
      {"measurement": "protection against vaccinia virus lethal infection (survival)", "setting": "vaccinia virus [2]", "result": "inhibited vaccinia virus lethal infection of mice"},
      {"measurement": "weight loss", "setting": "[3]", "result": "not seen"}
    ]},
    {"molecule": "lipo-IFNτ(156-195) (EKGYSDCAWEIVRVEMMRALTSSTTLQKRLTKTGGDLNSP; also: lipid attached)", "values": [
      {"measurement": "antiviral activity against vesicular stomatitis virus (VSV)", "setting": "[1]", "result": "showed antiviral activity"}
    ]},
    {"molecule": "IFNα1(69-189)R9 (protein) RRRRRRRRRNQFQKAPAISVLHELIQQIFNLFTTKDSSAAWDEDLLDKFCTELYQQLNDLEACVMQEERVGETPLMNADSILAVKKYFRRITLYLTEKKYSPCAWEVVRAEIMRSLSLSTNLQERLRRKE", "values": [
      {"measurement": "antiviral activity against EMC virus", "setting": "EMC virus", "result": "possessed antiviral activity"},
      {"measurement": "therapeutic efficacy in EAE (mean daily severity of disease)", "setting": "[4]", "result": "essentially complete therapeutic efficacy"},
      {"measurement": "body weight change", "setting": "[5]", "result": "gained weight"},
      {"measurement": "Lymphocytes (%)", "setting": "lymphocytes", "result": "75 ± 3", "unit": "%"},
      {"measurement": "% Reduction (lymphocytes)", "setting": "lymphocytes", "result": 4, "unit": "%"}
    ]},
    {"molecule": "IFNα1(69-189) (protein, listed as Homo sapiens) NQFQKAPAISVLHELIQQIFNLFTTKDSSAAWDEDLLDKFCTELYQQLNDLEACVMQEERVGETPLMNADSILAVKKYFRRITLYLTEKKYSPCAWEVVRAEIMRSLSLSTNLQERLRRKE", "values": [
      {"measurement": "therapeutic efficacy in EAE (mean daily severity of disease)", "setting": "[4]", "result": "developed paraplegia"}
    ]},
    {"molecule": "IFNβ(100-187)R9 (protein) RRRRRRRRRWNETIVENLLANVYHQINHLKTVLEEKLEKEDFTRGKLMSSLHLKRYYGRILHYLKAKEYSHCAWTIVRVEILRNFYFINRLTGYLRN", "values": [
      {"measurement": "antiviral activity against EMC virus", "setting": "EMC virus", "result": "possessed antiviral activity"},
      {"measurement": "body weight change", "setting": "[5]", "result": "gained weight"},
      {"measurement": "Lymphocytes (%)", "setting": "lymphocytes", "result": "72 ± 5", "unit": "%"},
      {"measurement": "% Reduction (lymphocytes)", "setting": "lymphocytes", "result": 9, "unit": "%"}
    ]},
    {"molecule": "IFNα1 (protein, UniProt P01562 24-189, looked up) Interferon alpha-1/13: CDLPETHSLDNRRTLMLLAQMSRISPSSCLMDRHDFGFPQEEFDGNQFQKAPAISVLHELIQQIFNLFTTKDSSAAWDEDLLDKFCTELYQQLNDLEACVMQEERVGETPLMNADSILAVKKYFRRITLYLTEKKYSPCAWEVVRAEIMRSLSLSTNLQERLRRKE", "values": [
      {"measurement": "protection against vaccinia virus (VV) infection", "setting": "vaccinia virus [6]", "result": "did not protect"},
      {"measurement": "protection against vaccinia virus lethal infection (survival)", "setting": "vaccinia virus [2]", "result": "ineffective"},
      {"measurement": "weight loss", "setting": "[3]", "result": "weight loss seen"}
    ]}
  ]
}
